Experiments:
p-NP-C6 = settings: pH 8.5, 60 °C
BHET = settings: 120 h

Protein	plate clearing (BHET; part of the chain shown)	plate clearing (BHET)	further results
unnamed (protein) MERTVVETRYGRLRGEMNEGVFVWKGIPYAKAPVGERRFLPPEPPDAWDGVREATSFGPVVMQPSDPIFSGLLGRMSEAPSEDGLYLNIWSPAADGKKRPVLFWIHGGAFLFGSGSSPWYDGTAFAKHGDVVVVTINYRMNVFGFLHLGDSFGEAYAQAGNLGILDQVAALRWVKENIAAFGGDPDNITIFGESAGAASVGVLLSLPEASGLFRRAMLQSGSGSLLLRSPETAMAMTERILDKAGIRPGDRERLLSIPAEELLRAALSLGPGVMYGPVVDGRVLRRHPIEALRYGAASGIPILIGVTKDEYNLFTLTDPSWTKLGEKELLDRINREVGPVPEEAIRYYKETAEPSAPTWQTWLRIMTYRVFVEGMLRTADAQAAQGADVYMYRFDYETPVFGGQLKACHALELPFVFHNLHQPGVANFVGNRPEREAIANEMHYAWLSFARTGDPNGAHLPEAWPAYTNERKAAFVFSAASHVEDDPFGRERAAWQGR	–	–	Km (p-NP-C6): 0.5 µM; kcat (p-NP-C6): 39.8 s⁻¹; kcat/Km (p-NP-C6): 7.95e+07 M⁻¹ s⁻¹
unnamed (protein) MNFPRASRLMQAAVLGGLMAVSAAATAQTNPYARGPNPTAASLEASAGPFTVRSFTVSRPSGYGAGTVYYPTNAGGTVGAIAIVPGYTARQSSIKWWGPRLASHGFVVITIDTNSTLDQPSSRSSQQMAALRQVASLNGTSSSPIYGKVDTARMGVMGWSMGGGGSLISAANNPSLKAAAPQAPWDSSTNFSSVTVPTLIFACENDSIAPVNSSALPIYDSMSRNAKQFLEINGGSHSCANSGNSNQALIGKKGVAWMKRFMDNDTRYSTFACENPNSTRVSDFRTANCS	clears the plate (z > 3 vs empty vector)	–	–
unnamed (protein) MKNAPIRSVLATCLVAAAASALAQTTAPTSASLNASAGPLSVSTASVTAPRGFGGGTIYYPTTQARYGVIAISPGFTATQISIAWLGRRIATHGFVVITLNTLTTLDQPDSRANQLMAALNHVINSSSSAVKARIDTSRLAVAGHSMGGGGALIAARDNPTLKASYPLTPWNINSAFTTVRVPTMIVGADGDTIAPVGTHARPFYAALPGATSKAYGELNGATHFSPNSTNTPIGRYGVAWMKRFLDGDTRYSTFLCGTEHTRYATALVFDRYNQNCPY	–	not clears the plate	–
unnamed (protein) MVVIRTTNTTPTLQVTLMTTISVRKSALFVFAATAVLFSMSAFSFNPPTEPEPDPGPSPCQTDCGFTRGPNPTASYLEASTGPYAVRTTDVSRYVSGFGGGTIHYPAGTTGEMGAIAIVPGFFASESSIQWWGPRLASHGFVVITISTNSVFDQPGSRSAQLENALDYVISQSNSPTSGILGMVDSSRVGAMGWSMGGGGTLRLASSERLSAAIPLAPWNTGSNNFDQIDTPTLIFACENDGTAPVSQHASPFYNRIPGATAKAYFEINNGQHSCANGGGSNGGLLGKYGVSWMKLHIDKDDRYNRFLCGPNHAANSAISEYRGTCPY	–	not clears the plate	–
unnamed (protein) MLALRTSFPRVLTRLLAASLATGLVAQAQAAGHERGPAPTAASLEAEAGPFQVASTVLGAPVGYKGGTVFYPKGPGPFALVAFAPGFIETQSWNAWWAKYLASHGFVVVNIDTKSTLAFPPARQREQLAALKDVIQRSHTRGTPFYGLVDATRLGAMGHSMGGGATLELARDTPHIKAIVPMAPFQTTGTDYSRLTVPTLILTCKGDIVASAKSHAAPIYDSLPSSLDKAHVELAGGGGHPCTTSLGTSAEVKKVAAKYGVSWLKRFLDEDTRYSPFLCGAEHEASLKTSVVSAYQGNCP	not clears the plate	–	–
unnamed (protein) MKIVPPKPFFFEAGERAVLLLHGFTGNSADVRMLGRFLESKGYTCHAPIYKGHGVPPEELVHTGPDDWWQDVMNGYEFLKNKGYEKIAVAGLSLGGVFSLKLGYTVPIEGIVTMCAPMYIKSEETMYEGVLEYAREYKKREGKSEEQIEQEMEKFKQTPMKTLKALQELIADVRDHLDLIYAPTFVVQARHDEMINPDSANIIYNEIESPVKQIKWYEQSGHVITLDQEKDQLHEDIYAFLESLDW	–	–	Km (p-NP-C6; part of the chain shown): 2.16 µM; kcat (p-NP-C6; part of the chain shown): 38 s⁻¹; kcat/Km (p-NP-C6; part of the chain shown): 1.76e+07 M⁻¹ s⁻¹
unnamed (protein) MKFNLSEKWLIALLASSLSFNALAVGGGGDDDDPPSCETDCGYERGPDPTASSLEADDGPYNVSTINVSSFVSGFGGGTIHYPRGTSGTMGAIAVVPGFVSSESDIIWWGSRIASHGFVVITIDTNSGFDQPDSRANQLSAALDYVIDESDSSSSAISGMVDSSRLGVMGWSMGGGGSLKLATDRNLMAIIPQAPYYSGFNDFDEITTPTLIIACENDAVAPVSSHASSFYYDIPSSTDKAFLEINNGSHYCGNTGNANEDILGKYGVAWMKRFIDLDQRYDQFLCGPNHDAPYAISEYRDTCN	not clears the plate	–	–
unnamed (protein) MANPYERGPNPTDALLEASSGPFSVSEENVSRLSASGFGGGTIYYPRENNTYGAVAISPGYTGTEASIAWLGERIASHGFVVITIDTITTLDQPDSRAEQLNAALNHMINRASSTVRSRIDSSRLAVMGHSMGGGGTLRLASQRPDLKAAIPLTPWHLNKNWSSVTVPTLIIGADLDTIAPVATHAKPFYNSLPSSISKAYLELDGATHFAPNIPNKIIGKYSVAWLKRFVDNDTRYTQFLCPGPRDGLFGEVEEYRSTCPF	clears the plate (z > 3 vs empty vector)	–	–
unnamed (protein) MFIMIKKSELAKAIIVTGALVFSIPTLAEVTLSETTVSSIKSEATVSSTKKALPATPSDCIADSKITAVALSDTRDNGPFSIRTKRISRQSAKGFGGGTIHYPTNASGCGLLGAIAVVPGYVSYENSIKWWGPRLASWGFVVITINTNSIYDDPDSRAAQLNAALDNMIADDTVGSMIDPKRLGAIGWSMGGGGALKLATERSTVRAIMPLAPYHDKSYGEVKTPTLVIACEDDRIAETKKYANAFYKNAIGPKMKVEVNNGSHFCPSYRFNEILLSKPGIAWMQRYINNDTRFDKFLCANENYSKSPRISAYDYKDCP	–	not clears the plate	–
unnamed (protein) MVGYLEAVANYFPDTKWANYTTGYDGGTGGQTGFYNVMLQNSPLGALSWWNASCEFHDVMVEQAADTAARVPSNYRYYIGAGSAHTMYGSDKVYSDQSGGESQTILDWVNDMLAFDPAAADPGAPSWQSVECDDCEIVLPGDPLPRSLPTAPFALDIAGNPVIRCPPFPRGPDPTPAALEADLGPFPVRSYRPFFTPGFGAGTIWYPANPNPGPFAVIAVSPGFRAPESTMAWVGPRLASNGFIVITISTQSPFDNPTSRAKQLMAALRLVAAEGRRPSPIIGRVDGDRTGLIGHSMGGGGSLIAARDNPSVDAIIPLAPWNSPAKDFSAVEAASLIVACERDEIARVSQHAKPFYDSIPAADVNKAFLEFRGADHLCVMVGNDHYATLGKYIVAWMKAFLDSDTRYDEYLCG	–	not clears the plate	–
unnamed (protein) MTVCKLRMFTAQKHPVTNKIFGGSSMSSRKQDLRLRQLLYCLLLSTALGGAVVHAQTAPATIAQEAFNNGFGIFTAAGSATANGQAVLAGTFGGTDGSITSSPISTQGFSNITVSFDRTTVGLDNGEAGVAEFSVAGGAFTAIESAQTASGRMSFALAASAANQAQLRLRFRVVASRANETYSVDNVLVQGVAAGAQPPPPDPQPTNNPFQRGPTPSAATLEAAQGPFAVATTTVPNPSGFGAGTIYFPTSTTEGPFAAVSIAPGFSERQANVNWWGPRLASNGFVVVVIDTNSTSDAPASRATQLVAALRQVVTLSGTSGSPVFNKVDGNRLGVMGHSLGGGGTLIAAQNNPTLKAAIPFAPFNNDTNFSSVVVPTLIIACENDNVAPVADHASPFYNSFAASLDKAFLEIAGGSHSCANSGNNNMPILGKYGVSWMKLFMDNDTRYSPFLCGAPHQADLSGTQISEYRESCP	clears the plate (z > 3 vs empty vector)	–	–
unnamed (protein) MFNQIGKKSALSLMAAGSLMFSATALAIGGGGSGGGNNGGGGGCEADCGYERGPDPSVSLLEASTGPFSVRTSNVSSSVRGFGGGTIHYPTNTTGTMAAIVVIPGFVSPESSIAWWGPKLASHGFVVMTIGTNSGFDQPASRASQLNNALDYLIEQNGSSRSPINGMIDTDRLGVMGWSMGGGGTLRVATEGRVSAAIPLAPWDSSSSQFRSIDTPTLIFACENDSTAPVRSHADPFYDAIPDSTAKAFVELDGGGHTCANGSSGFGGSYNDVLSRLGVSWMKLHLDKDQRYNQFVCGPNHESDRSISEYRGTCPY	–	not clears the plate	–
unnamed (protein) MDKTRLFSTLSMVTSALLFSISVSAGKPSKGGDEPAPEPAACISDTDITSAALSSTGSSGPFTVSTKDVSRWSASGFGGGTIHYPTGAGDCGPIGGIAVVPGYVSYEASIKWWGPRLASWGFVVITINTNSIYDQPDSRATQLSAALDHIINDSTVGSMVDSSRLGAIGWSMGGGGALKLATDRSEVKAIIPQAPWYSGRYGRMKTPAFMIGCENDFVAPTSNHVDVFYANASGPKMKIEVNNGDHSCANSGYNETLLGKPGIAWMQRYIHGDTRFNQFLCGNENYGSSNSVSAYDFESC	not clears the plate	–	–
unnamed (protein) MNNNKMPKSALSLLVAGALFLSATAMAANPVPPPTNPGNPDSGYQRGPNPSVSMLEARNGPFSVRTTNVSSFTSGFGGGTIHYPTNTTGTMAAIVVIPGFVSAESSIEWWGPKLASHGFVVMTIDTNSGFDQPPSRARQINAALDYLIDQNNARGSAVSGMIDPNRLGVVGWSMGGGGSLRVAAEGRLDAVIPLAPWDTTNFRSVNTPALIFACESDTIAPVRSHASPFYNQIPASTPKAFVEISRGSHYCANGGGSNDAVLSRLGVSWMKVHLDKDQRYQQFICGPRHESDRSISEYRGN	not clears the plate	–	–
unnamed (protein) MKTSNSRRRRLAVAAGALLLAAAAHAQTNPYQKGPDPTSASLEATAGPFAVSTTSVSSSASGFGGGTIYYPTTAGSYGAIAISPGFTATQSSIAWLGRRLASHGFVVITIDTNSTLDQPASRATQLMAALNYVVNSSSSTVRSRVDANRLGVAGHSMGGGGTLIAARDNPTLKAAVPLTPWNTTKNFSSVTVPTLIIGAENDTVAPVSSHAIPFYNSLPSSTDKAYAELNGASHFAPNSSNTPIGKYSVAWMKRFVDNDTRYSPFLCGAPHTAYATSSAVSDYRSTCPY	–	not clears the plate	–

Reference: the PETadex activity labels
